According to patent publication US5942602:

What was measured:
[1] = molecular target: human full-length EGF receptor (human) (UniProt P00533)
EGFRvIII (human) [2] = molecular target: EGFRvIII (human) (UniProt P00533)
EGFRvIII (human) [3] = molecular target: EGFRvIII (human) (UniProt P00533); remark: listed apart in the source
[4] = molecular target: human full-length EGF receptor (human) (UniProt P00533); remark: listed apart in the source
[5] = molecular target: human full-length EGF receptor (human) (UniProt P00533); remark: listed apart in the source

Row | Substance | IC50 of cell killing, DH-EGFR-E cells, 40 h [1] [µg/mL] | IC50 of cell killing, DH-EΔ801-P cells, 40 h (EGFRvIII (human) [2]) [µg/mL] | IC50 of cell killing, DH-EΔ801-5 cells, 40 h (EGFRvIII (human) [3]) [µg/mL] | IC50 of cell killing, SKBR3 cells, 40 h [4] [µg/mL] | competition of TGFα-ETA (100 ng/ml) cytotoxicity by 10 µg/ml scFv, 40 h; MDA-MB468 cells (also A431 and SKBR3) (% cell killing) [5]
1 | TGFα-ETA (from UniProt P01135) | 0.042 | 0.7 | > 1 | 0.09 | 
2 | scFv(225) |  |  |  |  | 63
